Data published in patent US20130131319A1 (Chugai, published 2013).
Substitutions are numbered along the chain they refer to. Blank lines part the entries; values can stand above or below the binder they belong to.

Assays:
[1] = target: T1, soluble human FcRn (complex of FcRn and beta2-microglobulin) (human, UniProt P55899 24-297; P61769 21-119); assay: Biacore steady-state, antibody immobilized, pH 6.0, 25C; pH 6.0
T1 construct: Secreted from HEK293H
Description: (§1) The antibodies were tested as a test substance after direct immobilization onto Series S Sensor Chip CM5. Using an amino-coupling kit according to the supplier's instruction manual, the antibodies were immobilized onto Sensor Chip so as to secure an immobilization amount of 500 RU. The running buffer used was 50 mmol/l Na-phosphate/150 mmol/l NaCl containing 0.05% (v/v %) Surfactant P20 (pH 6.0).
(§2) With the prepared sensor chips, assay was carried out using as a running buffer, 50 mmol/l Na-phosphate/150 mmol/l NaCl containing 0.05% Surfactant P20 (pH 6.0) or 50 mmol/l Na-phosphate/150 mmol/l NaCl containing 0.05% Surfactant P20 (pH 7.4). Assays were carried out exclusively at 25 degrees C. The diluted human FcRn solutions and running buffer as a reference solution were injected at a flow rate of 5 microliter/min for ten minutes to allow for human FcRn to interact with the antibody on the chip. Next, the running buffer was injected at a flow rate of 5 microliter/min for one minute to monitor the dissociation of FcRn. […]
(§3) The assay results were analyzed using Biacore T100 Evaluation Software (Ver. 2.0.1). By a steady-state affinity method, the dissociation constant (KD) was calculated from the assay results at six different FcRn concentrations.

[2] = target: T1, soluble human FcRn (complex of FcRn and …); assay: Biacore steady-state, antibody immobilized, pH 7.4, 25C; pH 7.4
Description: as §1, §2, §3

[3] = target: T1, soluble human FcRn (complex of FcRn and …); assay: Biacore steady-state, antibody immobilized, pH 6.0, 25C
Description: as §1, §2, §3

[4] = target: T1, soluble human FcRn (complex of FcRn and …); assay: Biacore steady-state, antibody immobilized, pH 7.4, 25C
Description: as §1, §2, §3

[5] = target: T1, soluble human FcRn (complex of FcRn and …); assay: Biacore pH 7.0
Description: The binding between antibody and human FcRn was kinetically analyzed using Biacore T100 (GE Healthcare). […] An appropriate amount of protein L (ACTIGEN) was immobilized onto Sensor chip CM4 (GE Healthcare) by the amino coupling method, and the chip was allowed to capture an antibody of interest. Then, diluted FcRn solutions and running buffer (as a reference solution) were injected to allow human FcRn to interact with the antibody captured on the sensor chip. The running buffer used comprised 50 mmol/l sodium phosphate, 150 mmol/l NaCl, and 0.05% (w/v) Tween20 (pH 7.0). FcRn was diluted using each buffer. The chip was regenerated using 10 mmol/l glycine-HCl (pH 1.5). Assays were carried out exclusively at 25 degrees C. The association rate constant ka (1/Ms) and dissociation rate constant kd (1/s), both of which are kinetic parameters, were calculated based on the sensorgrams obtained in the assays, and KD (M) of each antibody for human FcRn was determined from these values. Each parameter was calculated using Biacore T100 Evaluation Software (GE Healthcare).

[6] = target: T1, soluble human FcRn (complex of FcRn and …); assay: Biacore pH 7.0 (Example 9 method)
Description: (§4) The binding between antibody and human FcRn was kinetically analyzed using Biacore T100 (GE Healthcare). An appropriate amount of protein L (ACTIGEN) was immobilized onto Sensor chip CM4 (GE Healthcare) by the amine-coupling method, and the chip was allowed to capture an antibody of interest. Then, diluted FcRn solutions and running buffer as a reference solution were injected to allow for human FcRn to interact with the antibody captured on the sensor chip. The running buffer used comprised 50 mmol/l sodium phosphate, 150 mmol/l NaCl, and 0.05% (w/v) Tween20 (pH 7.0). FcRn was diluted using each buffer. The chip was regenerated using 10 mmol/l glycine-HCl (pH 1.5). Assays were carried out at 25 degrees C.
(§5) KD (M) of each antibody was derived from the sensorgram data using Biacore T100 Evaluation Software (GE Healthcare), which simultaneously fits the association and dissociation phases of the sensorgrams and globally fits all curves in the working set. Sensorgrams were fit to 1:1 binding model, the “Langmuir binding” model, supplied by Biacore T100 Evaluation Software. For some of the binding interactions, KD was derived by nonlinear regression analysis of plots of Req, the equilibrium binding response, versus the log of the analyte concentration using an equilibrium-based approach.

[7] = target: T1, soluble human FcRn (complex of FcRn and …); assay: Biacore pH 7.0 (Example 9 method); remark: listed apart in the source
Description: as §4, §5

Kd [1]: 0.32 µM | Kd [2]: 36.6 µM
B1: Fv4-IgG1-v1 (antibody)
heavy: QVQLQESGPGLVKPSETLSLTCAVSGHSISHDHAWSWVRQPPGEGLEWIGFISYSGITNYNPSLQGRVTISRDNSKNTLYLQMNSLRAEDTAVYYCARSLARTTAMDYWGEGTLVTVSSASTKGPSVFPLAPSSKSTSGGTAALGCLVKDYFPEPVTVSWNSGALTSGVHTFPAVLQSSGLYSLSSVVTVPSSSLGTQTYICNVNHKPSNTKVDKKVEPKSCDKTHTCPPCPAPELLGGPSVFLFPPKPKDTLYITREPEVTCVVVDVSHEDPEVKFNWYVDGVEVHNAKTKPREEQYNSTYRVVSVLTVLHQDWLNGKEYKCKVSNKALPAPIEKTISKAKGQPREPQVYTLPPSRDELTKNQVSLTCLVKGFYPSDIAVEWESNGQPENNYKTTPPVLDSDGSFFLYSKLTVDKSRWQQGNVFSCSVMHEALHNHYTQKSLSLSP
light: DIQMTQSPSSLSASVGDSVTITCQASTDISSHLNWYQQKPGKAPELLIYYGSHLLSGVPSRFSGSGSGTDFTFTISSLEAEDAATYYCGQGNRLPYTFGQGTKVEIERTVAAPSVFIFPPSDEQLKSGTASVVCLLNNFYPREAKVQWKVDNALQSGNSQESVTEQDSKDSTYSLSSTLTLSKADYEKHKVYACEVTHQGLSSPVTKSFNRGEC
notes: copies: 2 + 2

Kd [3]: 0.11 µM | Kd [4]: 11 µM
B2: Fv4-IgG1-v2 (antibody)
heavy: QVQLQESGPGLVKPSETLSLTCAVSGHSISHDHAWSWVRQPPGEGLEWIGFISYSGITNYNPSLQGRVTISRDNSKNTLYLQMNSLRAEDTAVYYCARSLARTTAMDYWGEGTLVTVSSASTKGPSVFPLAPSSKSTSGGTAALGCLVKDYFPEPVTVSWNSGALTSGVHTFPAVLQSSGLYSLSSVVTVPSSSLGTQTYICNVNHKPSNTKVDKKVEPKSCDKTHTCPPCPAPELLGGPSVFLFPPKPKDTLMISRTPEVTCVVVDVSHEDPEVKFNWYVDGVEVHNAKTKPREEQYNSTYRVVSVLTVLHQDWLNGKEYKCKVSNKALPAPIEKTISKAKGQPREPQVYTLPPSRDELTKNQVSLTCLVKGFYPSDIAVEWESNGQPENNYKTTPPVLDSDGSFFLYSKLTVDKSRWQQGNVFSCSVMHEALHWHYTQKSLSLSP
light: B1 light
notes: copies: 2 + 2

Kd [5]: 0.025 µM
B3: IgG1-F455 (antibody)
heavy: B1 heavy with Y254M, T256S, E258T, P259V, T309Q, M430Y, N436Y
light: not shown
notes: copies: 2 + 2

Kd [6]: 14 µM | Kd [7]: 14 µM
B4: VH3/L (WT)-M73 (antibody)
heavy: QVQLQESGPGLVKPSETLSLTCAVSGHSISHDHAWSWVRQPPGEGLEWIGFISYSGITNYNPSLQGRVTISRDNSKNTLYLQMNSLRAEDTAVYYCARSLARTTAMDYWGEGTLVTVSSASTKGPSVFPLAPSSKSTSGGTAALGCLVKDYFPEPVTVSWNSGALTSGVHTFPAVLQSSGLYSLSSVVTVPSSNFGTQTYTCNVDHKPSNTKVDKTVERKSCVECPPCPAPPVAGPSVFLFPPKPKDTLMISRTPEVTCVVVDVSQEDPEVQFNWYVDGVEVHNAKTKPREEQFNSTFRVVSVLTVVHQDWLNGKEYKCKVSNKGLPAPIEKTISKTKGQPREPQVYTLPPSQEEMTKNQVSLTCLVKGFYPSDIAVEWESNGQPENNYKTTPPMLDSDGSFFLYSKLTVDKSRWQEGNVFSCSVMHEALHAHYTQKSLSLSP
light: not shown
notes: copies: 2 + 2
